Experimental data published in PMC11697783, “Structure/function of ATP sulfurylase domain of human 3′-phosphoadenosine 5′-phosphosulfate synthase (hPAPSS)” (Biochemistry and Biophysics Reports, 2024).
Numbering of substitutions follows the chain as printed. Names and notes keep the numbering of the source.

B1: COOH-terminal (aa 220-623) ATPS domain of hPAPSS1 (Homo sapiens) (protein)
chain: LQERDIVPVDASYEVKELYVPENKLHLAKTDAETLPALKINKVDMQWVQVLAEGWATPLNGFMREREYLQCLHFDCLLDGGVINLSVPIVLTATHEDKERLDGCTAFALMYEGRRVAILRNPEFFEHRKEERCARQWGTTCKNHPYIKMVMEQGDWLIGGDLQVLDRVYWNDGLDQYRLTPTELKQKFKDMNADAVFAFQLRNPVHNGHALLMQDTHKQLLERGYRRPVLLLHPLGGWTKDDDVPLMWRMKQHAAVLEEGVLNPETTVVAIFPSPMMYAGPTEVQWHCRARMVAGANFYIVGRDPAGMPHPETGKDLYEPSHGAKVLTMAPGLITLEIVPFRVAAYNKKKKRMDYYDSEHHEDFEFISGTRMRKLAREGQKPPEGFMAPKAWTVLTEYYKSLEK
notes: C-terminal ATP sulfurylase domain with linker, residues 220-623, APS kinase domain deleted; recombinant, purified
B2: hPAPSS1 (full length, residues 1-623) (Homo sapiens) (protein)
chain: MEIPGSLCKKVKLSNNAQNWGMQRATNVTYQAHHVSRNKRGQVVGTRGGFRGCTVWLTGLSGAGKTTVSMALEEYLVCHGIPCYTLDGDNIRQGLNKNLGFSPEDREENVRRIAEVAKLFADAGLVCITSFISPYTQDRNNARQIHEGASLPFFEVFVDAPLHVCEQRDVKGLYKKARAGEIKGFTGIDSEYEKPEAPELVLKTDSCDVNDCVQQVVELLQERDIVPVDASYEVKELYVPENKLHLAKTDAETLPALKINKVDMQWVQVLAEGWATPLNGFMREREYLQCLHFDCLLDGGVINLSVPIVLTATHEDKERLDGCTAFALMYEGRRVAILRNPEFFEHRKEERCARQWGTTCKNHPYIKMVMEQGDWLIGGDLQVLDRVYWNDGLDQYRLTPTELKQKFKDMNADAVFAFQLRNPVHNGHALLMQDTHKQLLERGYRRPVLLLHPLGGWTKDDDVPLMWRMKQHAAVLEEGVLNPETTVVAIFPSPMMYAGPTEVQWHCRARMVAGANFYIVGRDPAGMPHPETGKDLYEPSHGAKVLTMAPGLITLEIVPFRVAAYNKKKKRMDYYDSEHHEDFEFISGTRMRKLAREGQKPPEGFMAPKAWTVLTEYYKSLEK
notes: full length 1-623 (APSK + ATPS domains); E. coli BL21(DE3) pLys; Ni column and gel filtration
B3: hPAPSS1 (full length, residues 1-623) (Homo sapiens; N426K) (protein)
chain: B2 chain with N426K
notes: as for B2

How the values were obtained:
[1] = substrate: Nc1ncnc2c1ncn2[C@@H]1O[C@H](COP(=O)(O)OP(=O)(O)OP(=O)(O)O)[C@@H](O)[C@H]1O; assay: purified protein; format: biochemical, Homo sapiens; conditions: Tris-HCl pH 8.0, MgCl2, 37 °C; for K0.5: half maximal estimate, biphasic response, ATPS + APSK combined activity (two ATP sites)
[2] = substrate: O=S(=O)(O)O; assay: purified protein; format: biochemical, Homo sapiens; conditions: fixed ATP, Tris-HCl pH 8.0, MgCl2, 37 °C, labelled compound

Protein | Km ([1]; fixed sulfate, ATP sulfurylase activity) [µM] | Km ([2]; ATP sulfurylase activity) [µM] | K0.5 [1] [mM] | Km ([2]; ATPS + APSK combined activity) [µM]
B1 | 2200 | 530 |  | 
B2 |  |  | 4.3 | 330
B3 |  |  | 3.7 | 440
